Laboratory results as given in US20100291682, “SYSTEM FOR TRANSPOSING HYPERACTIVE RECOMBINANT DERIVATIVES OF MOS-1 TRANSPOSON” (published 2010).
Where a chain is given by its changes, count along the chain named.

How the values were obtained:
Assay in all cases: cell_activity; 3T40 transposition in E. coli T5 vs 3T3/WT
Conditions in all cases: chain copies: 2
Mos-1 transposase TY = target: T1, Mos-1 transposase TY (Drosophila mauritiana, UniProt Q7JQ07 SEQ:1-345, T216A,Y237C)
T1 sequence: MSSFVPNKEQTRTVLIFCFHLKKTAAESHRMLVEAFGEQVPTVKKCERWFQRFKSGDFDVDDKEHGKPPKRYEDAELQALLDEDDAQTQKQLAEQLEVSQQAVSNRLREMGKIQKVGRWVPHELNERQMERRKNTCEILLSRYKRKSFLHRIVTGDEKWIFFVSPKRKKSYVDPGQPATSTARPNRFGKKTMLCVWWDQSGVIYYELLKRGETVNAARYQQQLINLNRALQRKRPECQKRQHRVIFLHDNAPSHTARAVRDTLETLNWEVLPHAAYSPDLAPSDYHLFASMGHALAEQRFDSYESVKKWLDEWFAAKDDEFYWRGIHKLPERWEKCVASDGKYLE
Description: (§1) Escherichia coli JM109 bacteria were co-transformed with the pBC 3T3 plasmid (comprising a transposition reporter 2 ITR 3′ mariner-like element and the chloramphenicol resistance gene) and with the inducible vector encoding for the transposase (pKK-Tnp or pMal-Tnp) comprising the ampicillin resistance gene. The bacteria selection was performed on ampicillin (100 μg/ml) and chloramphenicol in order to verify the presence of the two plasmids.
(§2) The JM109 bacteria containing both the pBC 3T3 plasmid and the pKK-Tnp (or pMalC2X-Tnp) plasmid were placed in culture for 1 hr at 37° C. in 250 μl of LB. This inoculum was then poured into 5 ml of LB supplemented with 1 mM IPTG. The culture was titrated on LB plates (100 μl of a 1/1000 dilution) and on LB-Tet plates (12.5 μg/ml) (250 μl of the non-diluted culture). The culture induced by IPTG was then cultured for 5 hours at 32° C. (optimal temperature of transposase) under stirring (250 rpm). The bacterial suspension was then titrated on LB plates (100 μl of a 1/250,000 dilution) and on LB-tet plates (100 μl of the undiluted bacterial suspension). The plates were placed at 37° C. overnight. The following day, the colonies were counted on LB and LB-Tet plates, and the transposition frequency (equal to the number of tetracycline bacteria over the number of bacterial per 1 ml of undiluted bacterial suspension) was calculated.
(§3) In order to evaluate the transposition efficiency of systems associating a hyperactive transposase and a pseudo-transposon that is also hyperactive, various combinations were tested in the transposition test in bacteria described in part I, paragraph I-B above.

Mos-1 transposase QY = target: T2, Mos-1 transposase QY (Drosophila mauritiana, UniProt Q7JQ07 SEQ:1-345, Q91R,Y237C)
T2 sequence: T1 sequence with Q91R, A216T
Description: as §1, §2, §3

Mos-1 transposase FTY = target: T3, Mos-1 transposase FTY (Drosophila mauritiana, UniProt Q7JQ07 SEQ:1-345, F53Y,T216A,Y237C)
T3 sequence: T1 sequence with F53Y
Description: as §1, §2, §3

Mos-1 transposase ET = target: T4, Mos-1 transposase ET (Drosophila mauritiana, UniProt Q7JQ07 SEQ:1-345, E137K,T216A)
T4 sequence: T1 sequence with E137K, C237Y
Description: as §1, §2, §3

B1: ITR40 (dsDNA)
DNA 1: TCAGGTGTACAAGTATGTAATGTCGTTA
DNA 2: TAACGACATTACATACTTGTACACCTGA
- activity (Mos-1 transposase TY): 36.2 fold
- activity (Mos-1 transposase QY): 1.3 fold
- activity (Mos-1 transposase FTY): 2.4 fold
- activity (Mos-1 transposase ET): 8.9 fold
